The text below walks through data of publication PMC3742456.

The data set concerns the target c-kit receptor (CD117), expressed on BJAB c-kit cells (Mus musculus) (UniProt P05532). Kind of data set: flow cytometry (cell titration, 0-100 nM). Conditions: apparent Kd on BJAB c-kit cells, background subtracted; Aptamer folded in SELEX buffer (DPBS with Ca/Mg, 5 mM MgCl2, 0.45% glucose, tRNA), 95 C then …; binding in DPBS with Ca/Mg + 0.1% BSA, 1 h on ice; FAM. On the technique in general: Flow cytometry measures light scatter and fluorescence of single cells or particles in a stream.
Chain of UniProt P05532 (P05532 25-979): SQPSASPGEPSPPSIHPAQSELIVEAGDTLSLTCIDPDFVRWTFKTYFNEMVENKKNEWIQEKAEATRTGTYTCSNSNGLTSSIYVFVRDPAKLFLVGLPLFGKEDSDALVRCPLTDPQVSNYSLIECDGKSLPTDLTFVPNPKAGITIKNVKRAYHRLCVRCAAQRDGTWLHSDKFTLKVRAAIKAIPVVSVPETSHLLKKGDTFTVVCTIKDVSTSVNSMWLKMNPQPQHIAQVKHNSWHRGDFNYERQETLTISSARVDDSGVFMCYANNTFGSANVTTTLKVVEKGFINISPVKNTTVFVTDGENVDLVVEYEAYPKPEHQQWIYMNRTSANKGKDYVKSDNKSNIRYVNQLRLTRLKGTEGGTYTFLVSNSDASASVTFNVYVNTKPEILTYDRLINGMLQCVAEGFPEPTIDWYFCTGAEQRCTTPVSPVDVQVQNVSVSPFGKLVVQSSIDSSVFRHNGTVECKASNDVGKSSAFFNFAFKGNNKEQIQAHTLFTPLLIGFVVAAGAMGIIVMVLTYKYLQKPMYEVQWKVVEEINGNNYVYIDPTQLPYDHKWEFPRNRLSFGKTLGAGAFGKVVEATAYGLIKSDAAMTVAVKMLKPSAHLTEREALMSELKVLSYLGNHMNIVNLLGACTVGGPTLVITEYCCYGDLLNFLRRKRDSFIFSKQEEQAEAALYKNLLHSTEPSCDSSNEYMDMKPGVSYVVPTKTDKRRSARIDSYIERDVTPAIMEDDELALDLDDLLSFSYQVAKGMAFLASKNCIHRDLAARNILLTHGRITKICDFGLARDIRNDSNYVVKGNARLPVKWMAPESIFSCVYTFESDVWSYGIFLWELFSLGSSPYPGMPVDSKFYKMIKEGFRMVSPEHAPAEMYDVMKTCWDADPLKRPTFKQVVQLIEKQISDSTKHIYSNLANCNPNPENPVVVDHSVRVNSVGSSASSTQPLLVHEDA

Regarding “AGCAGCACAGAGGTCAGATGGCTCAACGCGGGACGGCTCTCCCATTGACCCTATGCGTGCTACCGTGAA [Kit-129]”, the Kd was 12.2 nM.
